Reference: patent US20250255905A1 (University of Texas, published 2025)

Biological target: T1, recombinantly produced human BCMA (human, UniProt Q02223 1-54, limits assumed)
T1 construct: also called B-cell maturation antigen; TNFRSF17
T1 sequence (looked up): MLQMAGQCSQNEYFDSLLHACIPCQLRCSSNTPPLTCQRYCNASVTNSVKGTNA
Test: flow cytometry; CAR-transduced cord blood NK cells stained with recombinantly produced human BCMA to detect the CAR on the surface
Description: Following the incubation, the cells were transferred to a v-bottom 96-well plate for cell staining. The cells, after pelleted by centrifugation and washed with flow buffer, were stained in 1:10 Fc block with fluorescently conjugated mouse anti-human CD3, mouse anti-human CD56, mouse anti-human NKG2D, and recombinantly produced human BCMA for 30 minutes on ice in the dark. The stained cells were washed, resuspended in Sytox Viability Dye and recorded on an MACSquant flow cytometer. Data were exported and analyzed using FlowJo v10.6.2. Live CD3-CD56⁺BCMA⁺ […] excluding the viability dye were quantified.

B1: BCMA-DAP10 CAR (other)
chain: QITLRESGGDVVQPGRSLRLSCAASGFTFSSYAIHWVRQAPGKGLEWVAVTWHDGSNKYYAESVMGRFTISRDNSKNTLYLHMNSLRAEDTGVYYCARAKFGEPQYFQHWGQGTLVTVSSGGGGSGGGGSGGGGSDIVMTQSPSFLSASVGDRVTITCRASQGINNYLAWYQQKPGIAPKLLIYAASTLQSGVPSRFGGSGSGTEFTLTISSLQPEDFATYYCQQLKSYPFTFGPGTKVEIKRAAAIEVMYPPPYLDNEKSNGTIIHVKGKHLCPSPLFPGPSKPKDPKFWVLVVVGGVLACYSLLVTVAFIIFWVLCARPRRSPAQEDGKVYINMPGRGRVKFSRSADAPAYQQGQNQLYNELNLGRREEYDVLDKRRGRDPEMGGKPRRKNPQEGLYNELQKDKMAEAYSEIGMKGERRRGKGHDGLYQGLSTATKDTYDALHMQALPPR
notes: It leaves out the signal peptide, E2A and IL-15; E2A residues left at the C-terminus after cleavage are not described; also called BCMA CAR; BCMA targeting CAR
B1: binds.
